To fix the notation:
B1: 6 x his-tagged Dreb2a_(168-335) (Dehydration responsive element binding protein 2A, Med25-binding domain 168-253 and activation domain 254-335) (domain or fragment, Arabidopsis thaliana, UniProt O82132 168-335, looked up)
chain: DCESKPFSGGVEPMYCLENGAEEMKRGVKADKHWLSEFEHNYWSDILKEKEKQKEQGIVETCQQQQQDSLSVADYGWPNDVDQSHLDSSDMFDVDELLRDLNGDDVFAGLNQDRYPGNSVANGSYRPESQQSGFDPLQSLNYGIPPFQLEGKDGNGFFDDLSYLDLEN
B4: Arabidopsis thaliana Med25 ACtivator Interaction Domain (aMed25-ACID), Med25_(551-680) (domain or fragment, UniProt Q7XYY2 551-680, looked up)
chain: TSQSKYVKVWEGNLSGQRQGQPVLITRLEGYRSASASDSLAANWPPTMQIVRLISQDHMNNKQYVGKADFLVFRAMSQHGFLGQLQDKKLCAVIQLPSQTLLLSVSDKACRLIGMLFPGDMVVFKPQIPN
notes: source: 15N-labelled in M9 medium for NMR

Conditions in all cases: both partners purified
Assay [1] concerns the target B4. The experiment in a line: ITC. A general note: ITC needs no label: the signal is the heat of the interaction.
The target in assay [2] is B4. In words: SPR. (In general: In SPR one partner is held on a chip, and binding of the other changes the refractive index at the surface.)
Assay [3] addresses T1, human Med25 ACtivator Interaction Domain (hMed25-ACID), 6 x his-tagged human Med25_(394-543) (human, UniProt Q71SY5 394-543).
T1 construct: source: 15N-labelled in M9 medium for NMR
T1 sequence (looked up): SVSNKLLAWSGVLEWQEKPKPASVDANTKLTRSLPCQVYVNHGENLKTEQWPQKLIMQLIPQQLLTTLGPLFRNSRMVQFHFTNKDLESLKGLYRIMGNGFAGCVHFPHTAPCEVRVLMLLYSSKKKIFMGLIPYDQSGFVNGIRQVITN
In words: SPR.

The target of assay [4] is B1. In words: ITC.

dH, Kd and Ka data for four molecules are collected here from article PMC4038590 (PLoS ONE, 2014).

Broadly, the Kd is the concentration at which binding is half-saturated. Lower therefore signals a tighter complex.

For the molecule B1, the dH in assay [1] is -91.8 kJ/mol.

B2: GST-VP16-TAD (Herpes simplex virus VP16 transcription activation domain, both subdomains, residues 427-485) (domain or fragment)
chain: DGEDVAMAHADALDDFDLDMLGDGDSPGPGFTPHDSAPYGALDMADFEFEQMFTDALGI
notes: source: E. coli BL21 pLysS, purified (glutathione-sepharose 4B)
As for B2, the figures for the equilibrium dissociation constant (Kd) in assay [2] and in assay [3] were 1.8 µM and 2.8 µM, respectively.

B3: GST-VP16-TADn (Herpes simplex virus VP16 N-terminal transcription activation subdomain, residues 412-452) (domain or fragment)
chain: TAPPTDVSLGDELHLDGEDVAMAHADALDDFDLDMLGDGDS
notes: as for B2
On to B3, for which the Kd in assay [2] came out at 2.4 µM; in assay [3], 5.4 µM.

In assay [4], B4 displayed a Ka of 328000 M⁻¹ and a Kd of 3 µM.
